Experimental findings from US10894811B2, “Peptide inhibitors of calcium channels” (The University of North Carolina at Chapel Hill, priority 2016, dated 2021) are described below.

“Also recorded” adds a separate entry of the source.

In experiment [1] the target is T1, Orai1 (Homo sapiens, UniProt Q96D31). In words: Surface biotinylation / immunoblot of plasma membrane Orai1. The conditions noted are these: ASMC, after 4 h of SPLUNC1 exposure. Format: cell-based. Here is the method:
Surface biotinylation: hASMCs were treated with or without SPLUNC1 for 4 h. Cells were then washed with prechilled PBS^++ (phosphate buffered saline supplemented with 1 mM CaCl2 and 1 mM MgCl2), and then labeled with 0.5 mg/ml sulfo-NHS-biotin (Thermo) in borate buffer (85 mM NaCl, 4 mM KCl, 15 mM Na2B4O7, pH 9.0) while tumbling gently for 30 min on ice. hASMCs were incubated in PBS^++ buffer supplemented with 10% FBS for 20 min at 4° C. to quench free biotin. Cells were washed again three times with chilled PBS^++ and proteins were extracted as previously using lysis buffer (0.4% sodium deoxycholate, 1% NP-40, 50 mM EGTA, 10 mM Tris-Cl, pH 7.4) supplemented with 1×PIC. Total inputs were taken from whole cell samples representing 4% of total protein. Solubilized proteins were incubated with 100 μl of neutravidin beads (Pierce) overnight while rotating at 4° C. Samples were washed three times with lysis buffer. Bead-bound proteins were then eluted and SDS-polyacrylamide gels, and subjected to immunoblot analysis.
A general note: A western blot detects proteins with antibodies after separation by electrophoresis.

Experiment [2] concerns myosin light chain (MLC) phosphorylation. The experiment in a line: Immunoblot of phosphorylated myosin light chain in ASMCs. Format: cell-based, human. The conditions noted are these: basal and Ach-induced; pre-treatment with SPLUNC1. Here is the method: Antibodies, immunoprecipitation, and immunoblot analysis: Rabbit anti-Orai1, anti-HA epitope (Santa Cruz), anti-GFP, anti-phospho-myosin light chain, anti-total myosin light chain, anti-GAPDH (glyceraldehyde-3-phosphate dehydrogenase) (Cell Signaling Technology); mouse anti-V5 epitope (Life Technologies), were purchased from commercial sources. To detect protein expression in total cell lysates, cells were lysed in Pierce® IP lysis buffer with 25 mM Tris-HCl pH 7.4, 150 mM NaCl, 1% NP-40, 1 mM EDTA, 5% glycerol, followed by SDS-polyacrylamide electrophoresis and immunoblot.

Experiment [3] has as its target T1, Orai1. In words: Co-immunoprecipitation in HEK293T cell lysates (V5-SPLUNC1 / HA-Orai1). Format: binding. Further details: expressed in transfected cells; host or cells: HEK293T. The conditions noted are these: HEK293T cells cotransfected with V5-SPLUNC1 and HA-Orai1. The method, then: (§1) DNA constructs: Yellow fluorescent protein (YFP) tagged human Orai1 and Myc tagged TRPC3 were gifts from Dr. Craig Montell (Addgene plasmid #25902) and Dr. Anjana Rao (Addgene plasmid #19756), respectively. HA tagged human Orai1 was a generous gift from Dr. Patrick G Hogan at La Jolla Institute for Allergy & Immunology. pcDNA3.1(+)-V5-SPLUNC1 was a generous gift from Dr. Colin D Bingle at the University of Sheffield.
(§2) For immunoprecipitation, cell lysates were collected at 48 h post-transfection in Pierce® IP lysis buffer in the presence of 1× protease inhibitor cocktail (PIC) (Roche). Cell lysates were pre-cleared with protein A/G agarose beads and then incubated with 1 μg of antibodies against HA (BioLegend) or V5 (Invitrogen) with protein A/G agarose beads on a rotator at 4° C. overnight. After three washes with IP lysis buffer, immunoprecipitated complexes were eluted in sample buffer (50 mM Tris-HCl [pH 6.8], 2% sodium dodecyl sulfate (SDS), 10% glycerol, 5% (v/v) β-mercaptoethanol (BME), 0.1% bromophenol blue) by heating the samples at 95° C. for 5 min, electrophoresed through SDS-polyacrylamide gels, and subjected to immunoblot analysis.

Another experiment addresses T2, TRPC3 (Homo sapiens, UniProt Q13507).
T2 construct: host or cells: HEK293T
T2 sequence (Q13507 74-921 limits assumed): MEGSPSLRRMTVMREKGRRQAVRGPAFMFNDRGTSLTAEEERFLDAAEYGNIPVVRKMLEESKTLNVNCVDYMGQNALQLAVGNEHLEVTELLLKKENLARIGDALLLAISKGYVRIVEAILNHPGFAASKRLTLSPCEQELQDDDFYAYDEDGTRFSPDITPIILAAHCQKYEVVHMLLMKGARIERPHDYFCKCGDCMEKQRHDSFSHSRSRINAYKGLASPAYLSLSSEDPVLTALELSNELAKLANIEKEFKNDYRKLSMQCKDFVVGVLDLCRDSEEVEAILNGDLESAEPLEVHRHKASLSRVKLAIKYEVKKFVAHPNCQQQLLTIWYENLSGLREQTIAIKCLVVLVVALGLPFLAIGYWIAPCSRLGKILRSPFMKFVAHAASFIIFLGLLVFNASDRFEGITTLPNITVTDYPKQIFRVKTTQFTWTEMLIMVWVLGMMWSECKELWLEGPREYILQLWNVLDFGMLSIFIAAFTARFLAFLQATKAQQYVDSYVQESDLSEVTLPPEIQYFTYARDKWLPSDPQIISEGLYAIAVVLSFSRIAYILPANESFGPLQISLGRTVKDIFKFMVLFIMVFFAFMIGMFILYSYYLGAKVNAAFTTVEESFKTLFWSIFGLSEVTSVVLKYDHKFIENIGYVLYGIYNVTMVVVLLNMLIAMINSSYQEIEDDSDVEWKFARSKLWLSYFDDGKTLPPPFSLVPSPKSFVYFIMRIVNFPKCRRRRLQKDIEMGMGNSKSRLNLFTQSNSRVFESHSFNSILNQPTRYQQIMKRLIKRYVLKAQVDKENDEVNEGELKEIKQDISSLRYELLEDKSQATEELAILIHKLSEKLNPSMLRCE
The experiment in a line: Co-immunoprecipitation in HEK293T cell lysates (V5-SPLUNC1 / Myc-TRPC3). Format: binding. The conditions noted are these: HEK293T cells cotransfected with V5-SPLUNC1 and Myc-TRPC3. Here is the method: as §1, §2

Experiment [4] concerns the target T1, Orai1. The experiment in a line: Surface labeling and ground state depletion super resolution microscopy. The following applies: ASMC plasma membranes, after 1 h incubation. The arrangement: expressed in transfected cells. Format: cell-based. The method, then: Surface labeling and super resolution microscopy: Human ASMs were grown on 22×22 mm^2 glass coverslips and transfected with the HA-Orai1. 24 h after transfection, cells were fixed with 4% paraformaldehyde (PFA) in PBS, followed by surface labeling with mouse anti-HA antibody (BioLegend) and Alexa 488 goat anti mouse antibody (Life Technologies) at 4° C. After washing with ice cold PBS for five times, cells were incubated with 5 μM SPLUNC1-DyLight 594 for 1 h at 4° C. prior to imaging.
Prior to mounting, 90 μl of oxygen depleting medium, β-Mercaptoethylamine (MEA) was added to the cavity of depression slides. Coverslips were then mounted on the depression slides and sealed with twinsil (Picodent). Super resolution images were captured with a commercial LEICA GSD super-resolution microscope. Ground state depletion (GSD) was performed using 488 nm and 642 nm m solid-state lasers. Samples were excited using 488 nm and 642 nm lasers and sample acquisition was increased with back-pumping using the 405 nm laser as per the manufacturer's instructions. The microscope was fitted with a 160× oil-immersion objective lens.

T1 sequence (Q96D31 whole entry): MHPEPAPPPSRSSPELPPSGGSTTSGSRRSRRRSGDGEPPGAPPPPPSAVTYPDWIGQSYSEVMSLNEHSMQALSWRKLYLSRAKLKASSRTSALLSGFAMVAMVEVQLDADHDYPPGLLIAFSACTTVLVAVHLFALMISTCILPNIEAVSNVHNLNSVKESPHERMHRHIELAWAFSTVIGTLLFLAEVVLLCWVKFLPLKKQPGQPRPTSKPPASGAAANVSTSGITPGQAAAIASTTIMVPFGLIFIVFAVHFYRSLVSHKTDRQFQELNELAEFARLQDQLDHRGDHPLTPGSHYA

B1: SPLUNC1: Short palate, lung and nasal epithelium clone 1, recombinant full length protein (protein, listed as Homo sapiens)
chain: MFQTGGLIVFYGLLAQTMAQFGGLPVPLDQTLPLNVNPALPLSPTGLAGSLTNALSNGLLSGGLLGILENLPLLDILKPGGGTSGGLLGGLLGKVTSVIPGLNNIIDIKVTDPQLLELGLVQSPDGHRLYVTIPLGIKLQVNTPLVGASLLRLAVKLDITAEILAVRDKQERIHLVLGDCTHSPGSLQISLLDGLGPLPIQGLLDSLTGILNKVLPELVQGNVCPLVNEVLRGLDITLVHDIVNMLIHGLQFVIKV
Consider B1, for which, in the experiment with Orai1 [1], the “decrease of plasma membrane Orai1 levels” value is recorded as around 50%. In addition, the MLC phosphorylation entry in experiment [2] was “decreased both basal and induced MLC phosphorylation; also recorded: suppressing myosin light chain (MLC) phosphorylation; also recorded: decreases MLC phosphorylation in dose dependent-manners”. Also, the “co-immunoprecipitation with Orai1” value in the experiment with Orai1 [3] is on record as “could be co-immunoprecipitated; also recorded: interacting with Orai1”. In addition, the “co-immunoprecipitation with TRPC3” value in the experiment with TRPC3 was “but not an alternate Ca^2+ channel (TRPC3), could be co-immunoprecipitated; also recorded: does not interact with TRPC3”. In the experiment with Orai1 [4], the “co-localization of SPLUNC1 and Orai1” value is listed as “co-localize in ASMC plasma membranes”.
